The target of this assay is T1, FcγRIa (human, UniProt P12314 16-292).
T1 construct: extracellular domain; also called FcgRI; 1a
The assay is described as follows: SPR (Biacore); Ho Ab relative to HoCon Ab = 100. The method, then: Analysis of interaction between objective antibody and the FcγR was carried out using Biacore T100 (GE Healthcare). HBS-EP+ (GE Healthcare) was used as the running buffer, and the measurement temperature was set to 25° C. Chips produced by immobilizing the antigen peptide by the amine coupling method to a Series S Sencor Chip CM5 (GE Healthcare), or alternatively, chips produced by allowing preliminarily biotinylated antigen peptides to interact with and immobilize onto a Series S Sensor Chip SA (certified) (GE Healthcare) were used. Antibodies of interest were captured onto an antigen peptide-immobilized chip, and allowed to interact to each FcγR diluted with running buffer. To regenerate and repeatedly use the chip, the antibodies captured on the chip were washed off by reacting 10 mM glycine-HCl, pH 1.5.

T1 sequence (P12314 16-292): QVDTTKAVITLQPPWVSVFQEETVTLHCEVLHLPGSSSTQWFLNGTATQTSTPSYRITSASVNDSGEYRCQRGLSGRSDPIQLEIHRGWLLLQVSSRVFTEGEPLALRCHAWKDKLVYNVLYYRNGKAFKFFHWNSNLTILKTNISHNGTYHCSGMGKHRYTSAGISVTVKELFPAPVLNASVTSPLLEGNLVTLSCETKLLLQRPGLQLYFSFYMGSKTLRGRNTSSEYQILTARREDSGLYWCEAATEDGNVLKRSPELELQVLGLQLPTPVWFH

B1: GpH7-B3 variant E269_01G/GpL16-k0 (antibody, human IgG1, kappa)
heavy: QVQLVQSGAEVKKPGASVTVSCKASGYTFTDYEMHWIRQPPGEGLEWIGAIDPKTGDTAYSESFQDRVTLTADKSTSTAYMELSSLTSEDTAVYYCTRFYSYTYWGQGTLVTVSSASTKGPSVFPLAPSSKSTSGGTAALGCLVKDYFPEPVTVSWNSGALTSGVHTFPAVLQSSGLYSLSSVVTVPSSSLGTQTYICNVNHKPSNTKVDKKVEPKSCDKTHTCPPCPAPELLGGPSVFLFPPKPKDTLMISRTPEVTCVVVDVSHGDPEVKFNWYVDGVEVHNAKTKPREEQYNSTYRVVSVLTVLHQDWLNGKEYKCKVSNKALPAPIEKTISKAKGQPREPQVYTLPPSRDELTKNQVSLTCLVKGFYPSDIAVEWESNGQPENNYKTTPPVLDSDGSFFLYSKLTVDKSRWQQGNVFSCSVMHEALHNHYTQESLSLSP
light: DIVMTQSPLSLPVTPGEPASISCQASESLVHSNRNTYLHWYLQKPGQSPQLLIYKVSNRFSGVPDRFSGSGSGTDFTLKISRVEAEDVGVYYCSQNTHVPPTFGQGTKVEIERTVAAPSVFIFPPSDEQLKSGTASVVCLLNNFYPREAKVQWKVDNALQSGNSQESVTEQDSKDSTYSLSSTLTLSKADYEKHKVYACEVTHQGLSSPVTKSFNRGEC
notes: also called Ho Ab E269_01G
On to B1, for which the Ho/Con_1a was 97.4 % of control.

B2: GpH7-B3 variant A330_09D/GpL16-k0 (antibody, human IgG1, kappa)
heavy: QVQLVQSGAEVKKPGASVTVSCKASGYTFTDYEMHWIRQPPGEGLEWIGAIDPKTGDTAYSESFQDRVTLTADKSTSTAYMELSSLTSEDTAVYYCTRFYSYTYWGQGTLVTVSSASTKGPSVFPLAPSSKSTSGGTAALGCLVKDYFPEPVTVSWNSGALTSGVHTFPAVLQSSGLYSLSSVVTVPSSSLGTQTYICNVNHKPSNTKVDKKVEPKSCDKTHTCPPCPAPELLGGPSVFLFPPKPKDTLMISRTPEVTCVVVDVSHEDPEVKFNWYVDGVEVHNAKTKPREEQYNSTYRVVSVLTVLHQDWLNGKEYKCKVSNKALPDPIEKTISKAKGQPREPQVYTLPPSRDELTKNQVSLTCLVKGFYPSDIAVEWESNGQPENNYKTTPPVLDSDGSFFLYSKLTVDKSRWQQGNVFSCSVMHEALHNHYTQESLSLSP
light: B1 light
notes: also called Ho Ab A330_09D
With B2, the Ho/Con_1a is 108 % of control.

B3: GpH7-B3 variant E269_08L/GpL16-k0 (antibody, human IgG1, kappa)
heavy: not shown
light: B1 light
notes: also called Ho Ab E269_08L
Consider B3, for which the Ho/Con_1a was 101 % of control.

B4: GpH7-B3 variant A330_14T/GpL16-k0 (antibody, human IgG1, kappa)
heavy: not shown
light: B1 light
notes: also called Ho Ab A330_14T
In the case of B4, the Ho/Con_1a is 105 % of control.

B5: GpH7-B3 variant E269_06M/GpL16-k0 (antibody, human IgG1, kappa)
heavy: not shown
light: B1 light
notes: also called Ho Ab E269_06M
As to B5, the Ho/Con_1a was 101 % of control.

B6: GpH7-B3 variant A327_06M/GpL16-k0 (antibody, human IgG1, kappa)
heavy: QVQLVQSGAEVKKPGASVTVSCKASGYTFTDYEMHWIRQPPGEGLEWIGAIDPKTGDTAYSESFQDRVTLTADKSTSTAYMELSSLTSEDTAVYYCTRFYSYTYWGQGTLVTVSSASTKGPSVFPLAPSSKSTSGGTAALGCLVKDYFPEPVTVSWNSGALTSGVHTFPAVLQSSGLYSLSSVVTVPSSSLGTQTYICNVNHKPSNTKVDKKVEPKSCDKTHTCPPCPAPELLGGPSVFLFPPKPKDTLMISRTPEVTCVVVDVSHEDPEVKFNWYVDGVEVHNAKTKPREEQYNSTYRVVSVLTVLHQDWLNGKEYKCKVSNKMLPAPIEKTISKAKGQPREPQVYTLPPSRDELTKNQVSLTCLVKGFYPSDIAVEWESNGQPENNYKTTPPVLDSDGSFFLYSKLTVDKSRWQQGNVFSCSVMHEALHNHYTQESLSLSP
light: B1 light
notes: also called Ho Ab A327_06M
Take B6: the Ho/Con_1a was 93.1 % of control.

B7: GpH7-B3 variant A330_11K/GpL16-k0 (antibody, human IgG1, kappa)
heavy: not shown
light: B1 light
notes: also called Ho Ab A330_11K
As to B7, the Ho/Con_1a is 94.1 % of control.

B8: GpH7-B3 variant A327_09D/GpL16-k0 (antibody, human IgG1, kappa)
heavy: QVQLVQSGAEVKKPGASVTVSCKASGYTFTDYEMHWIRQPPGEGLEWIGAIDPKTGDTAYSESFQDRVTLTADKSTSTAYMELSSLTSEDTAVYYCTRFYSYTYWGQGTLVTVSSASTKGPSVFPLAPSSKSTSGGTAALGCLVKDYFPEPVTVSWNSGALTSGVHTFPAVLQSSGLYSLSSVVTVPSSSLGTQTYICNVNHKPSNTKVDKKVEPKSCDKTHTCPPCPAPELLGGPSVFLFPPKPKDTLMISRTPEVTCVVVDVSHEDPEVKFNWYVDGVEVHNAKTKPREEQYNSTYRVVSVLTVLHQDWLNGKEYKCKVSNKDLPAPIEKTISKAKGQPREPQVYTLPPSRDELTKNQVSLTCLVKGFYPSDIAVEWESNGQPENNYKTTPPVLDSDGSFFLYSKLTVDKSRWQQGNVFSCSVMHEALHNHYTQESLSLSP
light: B1 light
notes: also called Ho Ab A327_09D
With B8, the Ho/Con_1a is 102 % of control.

B9: GpH7-B3 variant A327_03V/GpL16-k0 (antibody, human IgG1, kappa)
heavy: not shown
light: B1 light
notes: also called Ho Ab A327_03V
As to B9, the Ho/Con_1a is 94.4 % of control.

B10: GpH7-B3 variant E269_07I/GpL16-k0 (antibody, human IgG1, kappa)
heavy: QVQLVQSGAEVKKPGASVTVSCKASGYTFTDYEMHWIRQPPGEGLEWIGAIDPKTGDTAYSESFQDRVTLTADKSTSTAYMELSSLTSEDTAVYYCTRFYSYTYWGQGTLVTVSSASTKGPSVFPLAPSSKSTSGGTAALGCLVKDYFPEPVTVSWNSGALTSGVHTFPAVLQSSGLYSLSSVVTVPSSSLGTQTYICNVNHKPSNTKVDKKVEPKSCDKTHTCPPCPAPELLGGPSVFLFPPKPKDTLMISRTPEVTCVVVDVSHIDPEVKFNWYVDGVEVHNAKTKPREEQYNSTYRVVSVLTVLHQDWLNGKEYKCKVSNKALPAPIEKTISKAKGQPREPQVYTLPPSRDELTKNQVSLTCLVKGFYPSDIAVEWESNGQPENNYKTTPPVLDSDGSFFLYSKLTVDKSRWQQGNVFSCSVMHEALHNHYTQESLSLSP
light: B1 light
notes: also called Ho Ab E269_07I
On to B10, for which the Ho/Con_1a is 97.1 % of control.

B11: GpH7-B3 variant E269_09D/GpL16-k0 (antibody, human IgG1, kappa)
heavy: not shown
light: B1 light
notes: also called Ho Ab E269_09D
As for B11, the Ho/Con_1a is 106 % of control.

B12: GpH7-B3 variant E269_02A/GpL16-k0 (antibody, human IgG1, kappa)
heavy: not shown
light: B1 light
notes: also called Ho Ab E269_02A
Turning to B12, the Ho/Con_1a is 96.2 % of control.

B13: GpH7-B3 variant A330_05P/GpL16-k0 (antibody, human IgG1, kappa)
heavy: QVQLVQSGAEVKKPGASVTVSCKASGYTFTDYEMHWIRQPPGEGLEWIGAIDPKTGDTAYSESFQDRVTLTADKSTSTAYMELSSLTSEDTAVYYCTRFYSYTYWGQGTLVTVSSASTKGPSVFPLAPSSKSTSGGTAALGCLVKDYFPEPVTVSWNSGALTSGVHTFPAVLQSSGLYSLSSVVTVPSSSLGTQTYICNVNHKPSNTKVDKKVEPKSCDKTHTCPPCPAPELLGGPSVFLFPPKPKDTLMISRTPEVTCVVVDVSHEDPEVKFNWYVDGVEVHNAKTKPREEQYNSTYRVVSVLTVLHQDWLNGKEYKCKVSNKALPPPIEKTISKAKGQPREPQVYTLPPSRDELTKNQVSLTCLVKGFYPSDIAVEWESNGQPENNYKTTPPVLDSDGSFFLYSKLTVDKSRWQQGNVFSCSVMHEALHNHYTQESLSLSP
light: B1 light
notes: also called Ho Ab A330_05P
In the case of B13, the Ho/Con_1a was 84.4 % of control.

B14: GpH7-B3 variant A330_08L/GpL16-k0 (antibody, human IgG1, kappa)
heavy: not shown
light: B1 light
notes: also called Ho Ab A330_08L
Consider B14, for which the Ho/Con_1a is 106 % of control.

B15: GpH7-B3 variant E269_04F/GpL16-k0 (antibody, human IgG1, kappa)
heavy: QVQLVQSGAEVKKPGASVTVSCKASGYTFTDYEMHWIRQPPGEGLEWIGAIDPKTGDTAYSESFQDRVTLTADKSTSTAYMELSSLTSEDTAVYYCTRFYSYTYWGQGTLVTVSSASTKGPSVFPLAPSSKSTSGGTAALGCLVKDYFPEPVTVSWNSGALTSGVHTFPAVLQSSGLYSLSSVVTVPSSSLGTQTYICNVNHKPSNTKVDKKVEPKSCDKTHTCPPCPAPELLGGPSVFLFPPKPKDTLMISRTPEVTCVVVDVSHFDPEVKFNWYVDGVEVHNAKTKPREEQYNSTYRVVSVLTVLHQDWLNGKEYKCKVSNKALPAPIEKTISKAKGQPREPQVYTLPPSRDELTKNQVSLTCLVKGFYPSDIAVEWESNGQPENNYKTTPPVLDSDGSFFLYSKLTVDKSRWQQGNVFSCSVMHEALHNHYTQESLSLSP
light: B1 light
notes: also called Ho Ab E269_04F
Consider B15, for which the Ho/Con_1a was 102 % of control.

B16: GpH7-B3 variant E269_05P/GpL16-k0 (antibody, human IgG1, kappa)
heavy: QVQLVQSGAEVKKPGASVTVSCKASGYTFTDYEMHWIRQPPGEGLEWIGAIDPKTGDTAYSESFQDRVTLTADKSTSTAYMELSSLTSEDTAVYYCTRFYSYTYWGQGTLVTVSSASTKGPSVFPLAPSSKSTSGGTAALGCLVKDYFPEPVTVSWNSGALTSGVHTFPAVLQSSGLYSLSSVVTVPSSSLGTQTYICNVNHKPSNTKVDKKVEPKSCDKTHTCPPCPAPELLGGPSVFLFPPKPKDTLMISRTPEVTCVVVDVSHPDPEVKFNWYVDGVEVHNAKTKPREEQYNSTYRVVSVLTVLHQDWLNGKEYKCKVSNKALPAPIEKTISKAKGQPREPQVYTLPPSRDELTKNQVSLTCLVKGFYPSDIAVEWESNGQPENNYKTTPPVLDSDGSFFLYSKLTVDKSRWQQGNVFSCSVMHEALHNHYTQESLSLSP
light: B1 light
notes: also called Ho Ab E269_05P
Regarding B16, the Ho/Con_1a is 95.7 % of control.

B17: GpH7-B3 variant A327_10E/GpL16-k0 (antibody, human IgG1, kappa)
heavy: not shown
light: B1 light
notes: also called Ho Ab A327_10E
For the molecule B17, the Ho/Con_1a was 98.8 % of control.

B18: GpH7-B3 variant E269_03V/GpL16-k0 (antibody, human IgG1, kappa)
heavy: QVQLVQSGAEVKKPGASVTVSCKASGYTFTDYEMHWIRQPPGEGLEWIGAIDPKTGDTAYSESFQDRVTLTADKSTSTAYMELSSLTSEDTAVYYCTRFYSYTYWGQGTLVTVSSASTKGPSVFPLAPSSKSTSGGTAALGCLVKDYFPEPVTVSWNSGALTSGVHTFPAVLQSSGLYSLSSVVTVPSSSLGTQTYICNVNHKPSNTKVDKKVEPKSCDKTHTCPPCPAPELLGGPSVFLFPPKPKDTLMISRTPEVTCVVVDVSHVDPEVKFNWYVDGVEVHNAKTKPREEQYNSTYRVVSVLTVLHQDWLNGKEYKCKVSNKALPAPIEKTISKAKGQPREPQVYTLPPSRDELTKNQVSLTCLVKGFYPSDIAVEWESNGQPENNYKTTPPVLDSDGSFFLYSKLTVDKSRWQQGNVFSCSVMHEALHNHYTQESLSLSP
light: B1 light
notes: also called Ho Ab E269_03V
As for B18, the Ho/Con_1a is 95.4 % of control.

B19: GpH7-B3 variant A330_16H/GpL16-k0 (antibody, human IgG1, kappa)
heavy: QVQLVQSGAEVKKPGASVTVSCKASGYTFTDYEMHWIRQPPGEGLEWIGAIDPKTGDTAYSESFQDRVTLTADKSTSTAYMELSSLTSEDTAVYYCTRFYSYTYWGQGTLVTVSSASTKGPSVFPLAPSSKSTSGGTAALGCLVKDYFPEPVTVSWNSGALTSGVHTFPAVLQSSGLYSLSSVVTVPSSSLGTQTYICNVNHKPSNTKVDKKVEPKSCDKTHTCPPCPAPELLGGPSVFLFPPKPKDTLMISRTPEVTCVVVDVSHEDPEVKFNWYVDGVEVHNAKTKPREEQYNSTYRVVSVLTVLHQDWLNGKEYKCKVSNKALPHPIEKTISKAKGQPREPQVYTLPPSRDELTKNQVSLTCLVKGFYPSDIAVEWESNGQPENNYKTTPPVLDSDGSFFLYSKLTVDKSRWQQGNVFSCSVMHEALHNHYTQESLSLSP
light: B1 light
notes: also called Ho Ab A330_16H
For B19, the Ho/Con_1a was 104 % of control.

B20: GpH7-B3 variant A327_13S/GpL16-k0 (antibody, human IgG1, kappa)
heavy: not shown
light: B1 light
notes: also called Ho Ab A327_13S
For the molecule B20, the Ho/Con_1a was 86.1 % of control.

B21: GpH7-B3 variant A327_07I/GpL16-k0 (antibody, human IgG1, kappa)
heavy: not shown
light: B1 light
notes: also called Ho Ab A327_07I
As to B21, the Ho/Con_1a was 95.5 % of control.
